Experimental data from patent US20040171585.

Target: T1, HNF-4α (UniProt P41235)
T1 sequence: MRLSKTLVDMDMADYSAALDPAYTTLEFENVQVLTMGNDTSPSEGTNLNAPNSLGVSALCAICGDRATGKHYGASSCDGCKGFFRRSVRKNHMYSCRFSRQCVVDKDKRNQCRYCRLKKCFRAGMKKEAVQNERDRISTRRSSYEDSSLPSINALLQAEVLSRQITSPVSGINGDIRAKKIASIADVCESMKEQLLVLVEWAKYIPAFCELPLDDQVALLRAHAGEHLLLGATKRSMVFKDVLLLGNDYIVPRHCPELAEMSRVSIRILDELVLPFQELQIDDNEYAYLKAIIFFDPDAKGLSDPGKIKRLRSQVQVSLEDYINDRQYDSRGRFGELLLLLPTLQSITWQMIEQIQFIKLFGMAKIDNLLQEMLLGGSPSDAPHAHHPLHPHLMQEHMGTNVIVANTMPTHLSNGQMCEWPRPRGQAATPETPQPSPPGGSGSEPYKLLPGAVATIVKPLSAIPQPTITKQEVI
Assay: cell_activity
Conditions: CAT reporter with TK promoter and one to three C3P copies, COS-7, no added fatty acids

GCAGGTGACCTTTGCCCAGCGCC (double strand) [C3P element of apo CIII promoter (-87/-66)]
activity (fold activation): 7
